B1: GAL4 AD alone (pACT2) (other, yeast, UniProt P04386 768-881, looked up)
chain: ANFNQSGNIADSSLSFTFTNSSNGPNLITTQTNSQALSQPIASSNVHDNFMNNEITASKIDDGNNSKPLSPGWTDQTAYNAFGITTGMFNTTTMDDVYNYLFDDEDTPPNPKKE
notes: domain: AD; Control prey
B2: GAL4 AD-ZHX1 fusion pAD-ZHX1 (345-463) (other, human, UniProt Q9UKY1 345-463, looked up, not shown: large carriers)
chain: PEEVEEARRKQFNGTVHTVPQTITVIPTHISTGSNGLPSILQTCQIVGQPGLVLTQVAGTNTLPVTAPIALTVAGVPSQNNIQKSQVPAAQPTAETKPATAAVPTSQSVKHETALVNPD
notes: range 345-463
B3: GAL4 AD-ZHX3 fusion pAD-ZHX3 (303-364) (other, not shown: large carriers)
chain: LSSIPTYNAAMDSNSFLKNSFHKFPYPTKAELCYLTVVTKYPEEQLKIWFTAQRLKQGISWS
notes: It is the HD1 region
B4: GAL4 AD-ZHX1 fusion pAD-ZHX1 (430-564) (other, human, UniProt Q9UKY1 430-564, looked up, not shown: large carriers)
chain: QVPAAQPTAETKPATAAVPTSQSVKHETALVNPDSFGIRAKKTKEQLAELKVSYLKNQFPHDSEIIRLMKITGLTKGEIKKWFSDTRYNQRNSKSNQCLHLNNDSSTTIIIDSSDETTESPTVGTAQPKQSWNPF
notes: range 430-564

Biological target: T1, GAL4 DBD alone (pDBD) (yeast, UniProt P04386 1-147)
T1 construct: Control bait
T1 sequence (P04386 1-147 limits assumed): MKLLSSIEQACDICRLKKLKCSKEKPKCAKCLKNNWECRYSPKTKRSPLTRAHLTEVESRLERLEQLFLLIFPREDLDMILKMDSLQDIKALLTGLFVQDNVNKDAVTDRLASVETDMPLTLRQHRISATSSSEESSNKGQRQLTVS
Experiment: yeast two-hybrid, β-galactosidase activity

Binder	binding result
B1	no binding
B2	no binding
B3	no binding
B4	no binding

— patent US20070014790A1 (JAPAN SCIENCE AND TECHOLOGY AGENCY, published 2007)
